Measured values published in article doi:10.1101/2021.05.16.444192.

Molecular target: neurokinin 1 receptor (human) (UniProt P25103)
UniProt P25103, sequence (P25103 whole entry): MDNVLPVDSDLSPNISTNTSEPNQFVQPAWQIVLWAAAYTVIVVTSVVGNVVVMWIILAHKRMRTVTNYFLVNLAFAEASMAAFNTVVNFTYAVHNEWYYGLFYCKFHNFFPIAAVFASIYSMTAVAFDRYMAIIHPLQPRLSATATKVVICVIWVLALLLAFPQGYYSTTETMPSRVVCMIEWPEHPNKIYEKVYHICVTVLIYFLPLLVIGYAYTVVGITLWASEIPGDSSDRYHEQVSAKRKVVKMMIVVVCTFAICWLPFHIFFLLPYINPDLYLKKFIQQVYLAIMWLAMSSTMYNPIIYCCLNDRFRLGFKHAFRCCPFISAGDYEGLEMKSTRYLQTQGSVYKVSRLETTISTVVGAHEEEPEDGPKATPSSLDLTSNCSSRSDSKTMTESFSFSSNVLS

cAMP accumulation at wild-type NK1R, potency compared to SP: 16 fold
Substance: Substance P 6-11 (peptide)
